Measured values taken from publication doi:10.1101/2020.06.07.137802 (bioRxiv, 2020).
*: point of attachment. Biotin = O=C1N[C@H]2[C@H](CS[C@H]2CCCCC(=O)*)N1; Ahx = NCCCCCC(=O)O

Biological target: T1, recombinant, soluble extracellular b1b2 domain of human NRP1, wild type (residues 274-584) (human, UniProt O14786 274-584)
T1 sequence: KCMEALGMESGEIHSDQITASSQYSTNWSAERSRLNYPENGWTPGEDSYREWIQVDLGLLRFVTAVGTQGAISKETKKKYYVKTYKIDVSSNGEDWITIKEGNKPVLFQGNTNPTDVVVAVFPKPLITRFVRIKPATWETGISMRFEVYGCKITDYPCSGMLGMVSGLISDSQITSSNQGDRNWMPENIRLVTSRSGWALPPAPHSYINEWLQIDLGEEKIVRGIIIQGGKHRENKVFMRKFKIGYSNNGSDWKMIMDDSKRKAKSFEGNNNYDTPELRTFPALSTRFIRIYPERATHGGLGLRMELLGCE

{Biotin-Ahx}-RPARPAR-OH (also: on silver nanoparticles) [biotin-Ahx-RPARPAR-OH, prototypic NRP1-binding CendR peptide, on silver nanoparticles (AgNP-CendR)]
binding result: binds
